Assay results reported in patent US20200190192A1 (SUTRO BIOPHARMA, published 2020).
Read-outs that look alike come from different tables or passages of the source.

T1: cynomolgus Tim-3 expressed on CHO cells (cynomolgus monkey)
T1 construct: also called cTim-3; Cyno Tim-3 (CHO)
T1 chain: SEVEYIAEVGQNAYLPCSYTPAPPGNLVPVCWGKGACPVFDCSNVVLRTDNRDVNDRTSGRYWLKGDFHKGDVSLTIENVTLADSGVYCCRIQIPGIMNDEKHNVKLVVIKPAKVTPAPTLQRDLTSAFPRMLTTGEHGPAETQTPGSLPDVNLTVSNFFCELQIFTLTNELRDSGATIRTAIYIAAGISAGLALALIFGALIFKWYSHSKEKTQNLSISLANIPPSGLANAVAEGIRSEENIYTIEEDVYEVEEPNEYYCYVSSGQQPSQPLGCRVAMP

T2: recombinant cynomolgus Tim-3-Fc (R&D Systems, 7914-TM) (cynomolgus monkey)
T2 construct: Bought protein; also called cyTim-3-Fc; Cyno Tim-3-Fc; not shown: Fc of the bought fusion protein
T2 chain: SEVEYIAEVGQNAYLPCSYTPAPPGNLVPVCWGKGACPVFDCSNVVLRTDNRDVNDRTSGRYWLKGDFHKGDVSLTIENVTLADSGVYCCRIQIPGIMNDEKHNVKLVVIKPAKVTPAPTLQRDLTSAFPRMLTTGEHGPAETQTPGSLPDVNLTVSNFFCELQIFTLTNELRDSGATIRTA

B1: h22E11-VK4-1 × h22E11-VH3-23 (antibody, V domains shown)
VH: EVQLLESGGGLVQPGGSLRLSCAVSGFSLTSYGVHWVRQAPGKGLEWLVVIWSDGSTTYNDSVKGRFTISKDNSKNTVYLQMNSLRAEDTAVYYCARQGGYRYDDAMDYWGQGTLVTVSS
VL: DIVLTQSPDSLAVSLGERATINCKASQSVDYDGNSYVNWYQQKPGQPPKLLIYAASNLESGVPDRFSGSGSGTDFTLTISSLQAEDVAVYYCQQSNEDPYTFGQGTKVEIK
notes: Humanized m22E11
B2: h22E11-5-IgG-LC × h22E11-5-IgG-HC (antibody, V domains shown)
VH: EVQLVESGGGLVQPGGSLRLSCAVSGFSLTSYGVHWVRQAPGKGLEWLVVIWSDGSTTYNSALKSRFTISKDNAKNSVYLQMNSLRAEDTAVYYCARQGGYRYDDAMDYWGQGTLVTVSS
VL: EIVLTQSPGTLSLSPGERATLSCKASQSVDYDGNSYVAWYQQKPGQAPRLLIYAASNLESGIPDRFSGSGSGTDFTLTISRLEPEDFAVYYCQQSNEDPYTFGQGTKVEIK
notes: Humanized m22E11; also called h22E11-5 IgG (lot 2)
B3: h22E11-VK3-11 × h22E11-5-IgG-HC (antibody, V domains shown)
VH: EVQLVESGGGLVQPGGSLRLSCAVSGFSLTSYGVHWVRQAPGKGLEWLVVIWSDGSTTYNSALKSRFTISKDNAKNSVYLQMNSLRAEDTAVYYCARQGGYRYDDAMDYWGQGTLVTVSS
VL: EIVLTQSPATLSLSPGERATLSCKASQSVDYDGNSYVNWYQQKPGQAPRLLIYAASNLESGIPARFSGSGSGTDFTLTISSLEPEDFAVYYCQQSNEDPYTFGQGTKVEIK
notes: Humanized m22E11
B4: SRP1497-A05 (antibody, V domains shown)
VH: EVQLVESGGGLVQPGGSLRLSCAASGFNISNYAIHWVRQAPGKGLEWVADITPDGGYTDYADSVKDRFTISADTSKNTAYLQMNSLRAEDTAVYYCARGYVYRMWDSFDYWGQGTLVTVSS
VL: not shown
notes: IgG with trastuzumab LC; HIS- and FLAG-tagged
B5: SRP1497-A01 (antibody, V domains shown)
VH: EVQLVESGGGLVQPGGSLRLSCAASGFNISNYAIHWVRQAPGKGLEWVADITPDGGYTDYADSVKGRFTISADTSKNTAYLQMNSLRAEDTAVYYCARGYVYRMWDSFDYWGQGTLVTVSS
VL: not shown
notes: IgG with trastuzumab LC, cell-free expressed; constructs were HIS- and FLAG-tagged
B6: SRP1497-A02 (antibody, V domains shown)
VH: EVQLVESGGGLVRPGGSLRLSCAASGFNISNYAIHWVRQAPGKGLEWVADITPDGGYTDYADSVKGRFTISADTSKNTAYLQMNSLRAEDTAVYYCARGYVYRMWDSFDYWGQGTLVTVSS
VL: not shown
notes: as for B4
B7: SRP1649-A01 (antibody, V domains shown)
VH: EVQLVESGGGLVQPGGSLRLSCAASGFNISRYYIHWVRQAPGKGLEWVAGITPVRGYTEYADSVKDRFTISADTSKNTAYLQMNSLRAEDTAVYYCARGYVYRMWDSYDYWGQGTLVTVSS
VL: not shown
notes: as for B4

Assays:
[1] = target: T3, recombinant human Tim-3-Fc (R&D Systems, 2365-TM) (human, UniProt Q8TDQ0 22-202, biotinylated in the Galectin-9 competition ELISA (sites not given)); assay: SPR Biacore, human Tim-3 Fc;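 further: antibodies captured on an anti-FLAG sensor surface, Tim-3-Fc flowed over as analyte at 25 °C in HBS-EP+ buffer, rates fit with a 1:1 Langmuir model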
T3 construct: Bought protein; also called huTim-3-Fc; biotinylated Tim-3-Fc; not shown: Fc of the bought fusion protein

[2] = target: T3, recombinant human Tim-3-Fc (R&D …); assay: SPR Biacore, human Tim-3 Fc; KD estimated
[3] = target: T1, cynomolgus Tim-3 expressed on CHO cells; assay: flow cytometry, CHO-cyno Tim-3 cells
[4] = target: T4, human Tim-3 expressed on the cell surface (human, UniProt Q8TDQ0 22-301); assay: flow cytometry, CHO-human Tim-3 cells
T4 construct: also called hTim-3; Human Tim-3 (CHO)

[5] = target: T4, human Tim-3 expressed on the cell …; assay: flow cytometry, activated human CD4+ T cells
[6] = target: T3, recombinant human Tim-3-Fc (R&D …); assay: competition ELISA, biotin-Tim-3-Fc vs coated Galectin-9
[7] = target: T2, recombinant cynomolgus Tim-3-Fc (R&D …); assay: ELISA, coated cyno Tim-3-Fc
[8] = target: T5, human Tim-3 (Biacore analyte; TIM-3-Fc or TIM-3-HIS, not said which) (human, UniProt Q8TDQ0 22-202); assay: SPR Biacore, human Tim-3 (Fc or HIS not said)
T5 construct: also called TIM-3 antigen; not shown: Fc or HIS tag

[9] = target: T3, recombinant human Tim-3-Fc (R&D …); assay: competition ELISA, biotin-Tim-3-Fc vs coated Galectin-9; remark: listed apart in the source
[10] = target: T3, recombinant human Tim-3-Fc (R&D …); assay: SPR Biacore, human Tim-3-Fc
[11] = target: T4, human Tim-3 expressed on the cell …; assay: flow cytometry, CHO-human Tim-3 cells; remark: listed apart in the source
[12] = target: T3, recombinant human Tim-3-Fc (R&D …); assay: ELISA, coated human Tim-3-Fc
[13] = target: T4, human Tim-3 expressed on the cell …; assay: cell binding (flow cytometry; cells not given)
[14] = target: T3, recombinant human Tim-3-Fc (R&D …); assay: competition ELISA, biotin-Tim-3-Fc vs coated Galectin-9; remark: listed apart in the source
[15] = target: T1, cynomolgus Tim-3 expressed on CHO cells; assay: flow cytometry, CHO-cyno Tim-3 cells

Binder | koff [1] [s⁻¹] | Kd [2] [nM] | Kd [3] [nM] | Kd [4] [nM] | Kd [5] [nM] | IC50 [6] [nM] | EC50 [7] [nM] | Kd [8] [nM] | koff [8] [s⁻¹] | kon [8] [M⁻¹ s⁻¹] | IC50 [9] [nM] | Kd [10] [nM] | koff [10] [s⁻¹] | kon [10] [M⁻¹ s⁻¹] | Kd [11] [nM] | EC50 [12] [nM] | Kd [13] [nM] | IC50 [14] [nM] | Kd [15] [nM]
B1 | 0.000875 | 5 | 4.6 | 0.9 | 0.9 | 0.67 | – | – | – | – | – | – | – | – | – | – | – | – | –
B2 | 0.0011 | 6.8 | – | 1 | – | 0.77 | – | – | – | – | – | – | – | – | – | – | – | – | –
B3 | 0.00104 | 5.9 | 5.3 | 0.8 | 1.1 | 0.64 | – | – | – | – | – | – | – | – | – | – | – | – | –
B4 | – | – | – | – | – | – | 6.19 | 64.7 | 0.0219 | 338000 | 1.1 | 2.27 | 0.000458 | 202000 | 0.5 | 0.24 | 5.6 | – | –
B5 | – | – | – | – | – | – | 22.6 | – | – | – | 0.8 | 2.15 | 0.000425 | 197000 | – | 0.3 | 1.17 | – | –
B6 | – | – | – | – | – | – | 13.7 | – | – | – | 1 | 2.95 | 0.000544 | 185000 | – | 0.34 | 1.54 | – | –
B7 | – | – | – | – | – | – | – | 17.4 | 0.00117 | 67100 | – | – | – | – | 0.4 | – | – | 0.26 | 0.5
